Laboratory results published in PMC3735542, “Light Driven CO2 Fixation by Using Cyanobacterial Photosystem I and NADPH-Dependent Formate Dehydrogenase” (PLoS ONE, 2013).
Like-named read-outs stand apart in the source and are kept apart here.

Key:
Experiment in all cases: purified protein
[1] = tested on: T1, NC(=O)c1ccc[n+]([C@@H]2O[C@H](COP(=O)(O)OP(=O)(O)OC[C@H]3O[C@@H](n4cnc5c(N)ncnc54)[C@H](O)[C@@H]3O)[C@@H](O)[C@H]2O)c1; format: biochemical, Pseudomonas sp. 101; conditions: 500 mM formate, PBS, 0.05% Triton X-100
T1 construct: synthetic gene in pET22b (NdeI/NotI), C-terminal His tag kept, E. coli BL21(DE3), about 44 kDa

[2] = tested on: T2, NC(=O)c1ccc[n+]([C@@H]2O[C@H](COP(=O)(O)OP(=O)(O)OC[C@H]3O[C@@H](n4cnc5c(N)ncnc54)[C@H](OP(=O)(O)O)[C@@H]3O)[C@@H](O)[C@H]2O)c1; format: biochemical, Pseudomonas sp. 101; conditions: 500 mM formate, PBS, 0.05% Triton X-100
T2 construct: synthetic gene in pET22b (NdeI/NotI), C-terminal His tag kept, E. coli BL21(DE3), about 44 kDa

purified protein [3] = substrate: O=CO; conditions: 2 mM NADP+, PBS, 0.05% Triton X-100; same doubt on QN or QH
purified protein [4] = substrate: NC(=O)c1ccc[n+]([C@@H]2O[C@H](COP(=O)(O)OP(=O)(O)OC[C@H]3O[C@@H](n4cnc5c(N)ncnc54)[C@H](OP(=O)(O)O)[C@@H]3O)[C@@H](O)[C@H]2O)c1; format: biochemical, Arabidopsis thaliana
purified protein [5] = substrate: NC(=O)c1ccc[n+]([C@@H]2O[C@H](COP(=O)(O)OP(=O)(O)OC[C@H]3O[C@@H](n4cnc5c(N)ncnc54)[C@H](OP(=O)(O)O)[C@@H]3O)[C@@H](O)[C@H]2O)c1; format: biochemical, Solanum tuberosum; conditions: 500 mM formate, PBS, 0.05% Triton X-100; positions 197/199 from methods and Table 1, b33 prints 195/197

Molecule: Pseudomonas FDH (PsFDH) (Pseudomonas sp. 101; D222Q/H224N)
- Km [1]: 1000 ± 600 µM
- Vmax [1]: 0.55 µM/min
- Km [2]: 350 ± 10 µM

B1: Arabidopsis FDH (AtFDH) (Arabidopsis thaliana; D227Q/L229N) (protein)
chain: ASSGDSKKIVGVFYKANEYATKNPNFLGCVENALGIRDWLESQGHQYIVTDDKEGPDCELEKHIPDLHVLISTPFHPAYVTAERIKKAKNLKLLLTAGIGSDHIDLQAAAAAGLTVAEVTGSNVVSVAEDELMRILILMRNFVPGYNQVVKGEWNVAGIAYRAYDLEGKTIGTVGAGRIGKLLLQRLKPFGCNLLYHQRNQMAPELEKETGAKFVEDLNEMLPKCDVIVINMPLTEKTRGMFNKELIGKLKKGVLIVNNARGAIMERQAVVDAVESGHIGGYSGDVWDPQPAPKDHPWRYMPNQAMTPHTSGTTIDAQLRYAAGTKDMLERYFKGEDFPTENYIVKDGELAPQYR
notes: synthetic gene in pET22b (NdeI/NotI), C-terminal His tag kept, E. coli BL21(DE3); partly digested on purification; primer encodes CNLLYH-X-R-X-QMAPEL
- Km (purified protein [3]): 96000 ± 14000 µM
- Km (purified protein [4]): 910 ± 70 µM

B2: potato FDH (PoFDH) (Solanum tuberosum; D224Q/L226H) (protein)
chain: LQASPGPKKIVGVFYKANEYAEMNPNFLGCAENALGIREWLESKGHQYIVTPDKEGPDCELEKHIPDLHVLISTPFHPAYVTAERIKKAKNLQLLLTAGIGSDHVDLKAAAAAGLTVAEVTGSNTVSVAEDELMRILILVRNFLPGHHQVINGEWNVAAIAHRAYDLEGKTVGTVGAGRIGRLLLQRLKPFNCNLLYHQRHKMDSELENQIGAKFEEDLDKMLSKCDIVVINTPLTEKTKGMFDKERIAKLKKGVLIVNNARGAIMDTQAVVDACNSGHIAGYSGDVWYPQPAPKDHPWRYMPNQAMTPHISGTTIDAQLRYAAGTKDMLDRYFKGEDFPAENYIVKDGELAPQYR
notes: synthetic gene in pET22b (NdeI/NotI), C-terminal His tag kept, E. coli BL21(DE3); primer encodes CNLLYH-X-R-X-KMDSEL
- Km (purified protein [5]): 620 ± 50 µM
